Assay results as given in patent US20120100561.

Key:
[1] = target: Myc-RhoC (N-terminal Myc epitope-tagged full-length human RhoC)
[2] = target: T1, phosphoinositide-dependent kinase-1 (PDK1), O15530
T1 chain: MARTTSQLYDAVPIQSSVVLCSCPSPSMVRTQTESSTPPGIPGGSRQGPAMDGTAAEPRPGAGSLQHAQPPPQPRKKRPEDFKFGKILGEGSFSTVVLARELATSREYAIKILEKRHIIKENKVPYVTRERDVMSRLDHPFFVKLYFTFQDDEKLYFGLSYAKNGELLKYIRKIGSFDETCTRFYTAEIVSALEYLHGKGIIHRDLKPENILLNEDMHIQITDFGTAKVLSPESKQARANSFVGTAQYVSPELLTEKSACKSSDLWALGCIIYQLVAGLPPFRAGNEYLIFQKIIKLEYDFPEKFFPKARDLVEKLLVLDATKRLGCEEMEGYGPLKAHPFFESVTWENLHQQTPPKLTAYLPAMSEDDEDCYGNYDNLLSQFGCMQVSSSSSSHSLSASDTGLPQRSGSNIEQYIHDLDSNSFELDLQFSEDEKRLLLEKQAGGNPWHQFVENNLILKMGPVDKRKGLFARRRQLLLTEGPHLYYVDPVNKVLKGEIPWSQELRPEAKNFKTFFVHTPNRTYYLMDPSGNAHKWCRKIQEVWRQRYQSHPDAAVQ

Sequence of Myc-RhoC (N-terminal Myc epitope-tagged full-length human RhoC) (chain, as listed by the source): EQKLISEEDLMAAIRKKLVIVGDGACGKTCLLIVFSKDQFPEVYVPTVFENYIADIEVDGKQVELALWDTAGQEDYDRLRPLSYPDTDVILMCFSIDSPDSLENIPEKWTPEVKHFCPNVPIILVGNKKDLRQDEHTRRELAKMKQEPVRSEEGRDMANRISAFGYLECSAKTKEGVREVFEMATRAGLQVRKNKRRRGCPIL

B1: Flag-PKN3 wt (N-terminal Flag epitope-tagged full-length kinase active human PKN3) (protein)
chain: DYKDDDKMEEGAPRQPGPSQWPPEDEKEVIRRAIQKELKIKEGVENLRRVATDRRHLGHVQQLLRSSNRRLEQLHGELRELHARILLPGPGPGPAEPVASGPRPWAEQLRARHLEALRRQLHVELKVKQGAENMTHTCASGTPKERKLLAAAQQMLRDSQLKVALLRMKISSLEASGSPEPGPELLAEELQHRLHVEAAVAEGAKNVVKLLSSRRTQDRKALAEAQAQLQESSQKLDLLRLALEQLLEQLPPAHPLRSRVTRELRAAVPGYPQPSGTPVKPTALTGTLQVRLLGCEQLLTAVPGRSPAAALASSPSEGWLRTKAKHQRGRGELASEVLAVLKVDNRVVGQTGWGQVAEQSWDQTFVIPLERARELEIGVHWRDWRQLCGVAFLRLEDFLDNACHQLSLSLVPQGLLFAQVTFCDPVIERRPRLQRQERIFSKRRGQDFLRASQMNLGMAAWGRLVMNLLPPCSSPSTISPPKGCPRTPTTLREASDPATPSNFLPKKTPLGEEMTPPPKPPRLYLPQEPTSEETPRTKRPHMEPRTRRGPSPPASPTRKPPRLQDFRCLAVLGRGHFGKVLLVQFKGTGKYYAIKALKKQEVLSRDEIESLYCEKRILEAVGCTGHPFLLSLLACFQTSSHACFVTEFVPGGDLMMQIHEDVFPEPQARFYVACVVLGLQFLHEKKIIYRDLKLDNLLLDAQGFLKIADFGLCKEGIGFGDRTSTFCGTPEFLAPEVLTQEAYTRAVDWWGLGVLLYEMLVGECPFPGDTEEEVFDCIVNMDAPYPGFLSVQGLEFIQKLLQKCPEKRLGAGEQDAEEIKVQPFFRTTNWQALLARTIQPPFVPTLCGPADLRYFEGEFTGLPPALTPPAPHSLLTARQQAAFRDFDFVSERFLEP
For B1, the “kinase activity of the anti-Flag immunoprecipitate toward the PKN3 substrate (GSK3α-derived fragment, SEQ ID NO:1), Western blot” value [1] was “the kinase activity is greatest for the PPRC complex than either PKN3 alone, or PKN3 and RhoC combined” and the “kinase activity of the anti-Flag immunoprecipitate toward the PKN3 substrate (GSK3α-derived fragment, SEQ ID NO:1), Western blot” value [2] was “the kinase activity is greatest for the PPRC complex than either PKN3 alone, or PKN3 and RhoC combined”.
